The text below walks through data of the RNAGym collection of RNA variant scans (doi:10.7554/elife.80360).

B1: Hairpin Ribozyme (parent)
chain: GUCCUCUUUCACGUGCGCGUGAAAGAGAGAAGUGAACCAGAGAAACACACGUUGUGGUAUAUUACCUGGUA

Variants of B1 are the subject of this data set. As to the kind of experiment: self-cleavage, relative activity (ratio to wild type); higher = more cleavage; co-transcriptional.
Turning to G17C A45G, the self-cleavage was 0.112. The figure for G17U A31C is 0.224; for G17U A31U it is 0.104; for C16U U55C it is 0.251. The figure for G17A A64U is 0.151. The figure for G17A A64G is 0.615.

On to G17A G29C, for which the self-cleavage was 0.169. The figure for G17A C46G is 0.211. As for G17A C46U, the self-cleavage was 0.143.

For the variant C16U G29U, the self-cleavage came to 0.0547. The figure for G17A C38A is 0.169. The figure for G17A C38U is 0.512. For G17C A22G, the self-cleavage turned out to be 0.552. To G17A G68C belongs 0.232; to G17A G68A, 0.301; to G17C U52C, 0.778.

For G17C G57U, the self-cleavage stood at 0.222.

Consider G17C G57A, for which the self-cleavage was 0.148. The figure for G17C G19C is 0.68; for G17C G19A it is 0.836. To G17A A44U belongs 0.183. To C16U U60G belongs 0.634; to G17C A43U, 0.0572; to G17A A59G, 0.205. As to G17A G51A, the self-cleavage came out at 1.06. For the variant G17U A59U, the self-cleavage was determined as 0.274. Regarding G17A G27A, the self-cleavage was 0.547. The figure for G17A G27U is 0.324. Regarding G17C A31G, the self-cleavage was 0.425.

With G17A A39G, the self-cleavage was determined as 0.319. To C16U G42U belongs 0.34; to C16U G42C, 0.346. To C16U G42A belongs 0.225. As to G17C U55G, the self-cleavage worked out at 0.196.

G17A A45U: the self-cleavage is 0.13. The figure for G17A A45G is 0.15; for G17C C37A it is 0.287; for G17C G29A it is 0.12. The figure for G17A C50U is 0.373. The figure for G17C C38A is 0.199. Regarding G17C A61C, the self-cleavage was 0.078. The figure for G17C A61G is 0.225; for G17A C66U it is 0.554; for G17A C66A it is 0.26.

On to G17C G42A, for which the self-cleavage is 0.176. To C16U G56U belongs 0.189; to C16U G56C, 0.127; to G17C G25C, 0.3. To G17A A41G belongs 0.833.

In the case of G17C A23G, the self-cleavage was found to be 0.458. The figure for G17A G40U is 0.203; for G17C C46G it is 0.074. Consider G17C C46A, for which the self-cleavage is 0.113. The figure for C16U U33G is 0.148. With G17A U58A, the self-cleavage came to 0.709. The figure for G17A U63A is 0.19; for G17A A36U it is 0.544.

Regarding G17A A36C, the self-cleavage is 0.607. To G17A A36G belongs 1.17; to G17A A47U, 0.132. To G17A A47C belongs 0.319; to G17U A26C, 0.682; to G17A G21A, 0.792.

As for C16U G32C, the self-cleavage is 0.0977. Consider C16U G32U, for which the self-cleavage turned out to be 0.134. The figure for C16U G27A is 0.536. For G17A C37A, the self-cleavage was found to be 0.251. To G17U A41C belongs 0.997. Regarding G17U A41G, the self-cleavage is 1.08. To G17C G69U belongs 0.196; to G17A A26G, 1.01; to G17A A26C, 0.75. The figure for G17U A47U is 0.101. The figure for G17C U58A is 0.453; for C16U U20C it is 0.86. Turning to C16U U20A, the self-cleavage came out at 0.817. To G17A G69C belongs 0.249; to C16U G34U, 0.885. C16U G34A: the self-cleavage worked out at 1.26. The figure for G17A U67A is 0.255; for G17A U67G it is 0.243. The figure for G17C U63G is 0.125. To C16U U63G belongs 0.195.

Take C16U U63A: the self-cleavage was determined as 0.253. With G17U A35G, the self-cleavage came to 1.02. To G17U A35C belongs 1.03.

G17A U53G: the self-cleavage was found to be 0.932. The figure for G17A U53C is 1.01; for G17A U53A it is 1.36; for G17C A41C it is 0.983. The figure for G17A U70C is 0.937; for G17A U70A it is 0.897.

Regarding G17A A24G, the self-cleavage came to 0.824. The figure for G17U A36G is 1.06; for G17U A36C it is 0.587.

As to G17A A23G, the self-cleavage was 0.824. Regarding G17A A71G, the self-cleavage stood at 1.04. To G17A A71U belongs 0.868; to G17U A44C, 0.152; to G17U A44U, 0.0838. To G17A A28U belongs 0.808. The figure for G17A A28C is 0.74; for G17A G19C it is 0.969; for G17A G19A it is 0.962.

Turning to G17C G32C, the self-cleavage is 0.183. To G17A C65U belongs 0.31; to G17A C65A, 0.86. With G17U A45G, the self-cleavage was found to be 0.0728. To G17U A45U belongs 0.176; to G17U A43G, 0.0761. To G17C C50G belongs 0.132; to G17C A24G, 0.88; to G17C A24U, 0.73. The figure for G17A U55G is 0.161; for G17C C48U it is 0.148. For the variant G17C G40U, the self-cleavage came out at 0.144. To G17C A64U belongs 0.176; to G17C A64G, 0.592; to G17C U20A, 0.736. To G17C U20G belongs 0.904; to G17C U67C, 0.197. On to G17U C37A, for which the self-cleavage is 0.26. The figure for G17A G42A is 0.222. To G17A G42U belongs 0.273. The figure for G17A C18G is 1.15. With G17C A35U, the self-cleavage came to 0.44. Regarding G17A A43U, the self-cleavage is 0.105. To C16U G69U belongs 0.267; to C16U G69A, 0.301; to C16U G54U, 0.82. The figure for C16U G54C is 0.411. To G17A G34U belongs 0.967. Consider G17A G34A, for which the self-cleavage is 1.26. Regarding G17A G34C, the self-cleavage worked out at 1.3. The figure for G17C G51U is 0.679. Regarding G17A U60G, the self-cleavage turned out to be 0.581. As to G17U A28C, the self-cleavage amounted to 0.383.

Regarding G17U A28U, the self-cleavage amounted to 0.51. As to G17A A49G, the self-cleavage was determined as 0.62.

On to G17A A49C, for which the self-cleavage amounted to 0.243. To C16U G57U belongs 0.266. To G17C U60C belongs 1.08. To C16U U58G belongs 0.765.

Take G17U A61G: the self-cleavage worked out at 0.117. The figure for G17C U62G is 0.216; for G17C A39U it is 0.35; for G17C A39C it is 0.528. In the case of G17U A24C, the self-cleavage is 0.848. To G17A A61C belongs 0.199; to G17A A61U, 0.208; to C16U U53G, 1.05.

As for C16U U53C, the self-cleavage came to 0.564.

Consider C16U U53A, for which the self-cleavage was determined as 1.23. As to G17C U53G, the self-cleavage was 0.41. The figure for G17U A71U is 0.815; for G17C G68A it is 0.196; for G17A G25C it is 0.552. The figure for G17A G25A is 0.587; for G17C A49U it is 0.263. The figure for G17C G56A is 0.0625; for G17A A31C it is 0.144; for G17A U52C it is 1.11.

With G17A U52G, the self-cleavage was 0.982.

Turning to G17U A22G, the self-cleavage was found to be 0.831. To G17U A22C belongs 0.703; to C16U G68C, 0.22; to C16U G68U, 0.329.
